In this experiment the target is T1, full length human CD154 on stably transfected mouse fibroblasts (human, UniProt P29965 1-261).
T1 construct: whole, on cells; also called membrane CD154; hCD154
T1 sequence (looked up): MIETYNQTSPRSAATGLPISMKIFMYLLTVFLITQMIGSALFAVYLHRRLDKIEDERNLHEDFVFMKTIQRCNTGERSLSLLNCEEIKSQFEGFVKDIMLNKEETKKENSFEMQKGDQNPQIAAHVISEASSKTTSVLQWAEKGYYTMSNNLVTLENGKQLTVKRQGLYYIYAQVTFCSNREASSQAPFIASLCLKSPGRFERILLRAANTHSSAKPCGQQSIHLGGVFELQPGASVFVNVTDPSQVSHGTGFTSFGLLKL
In words: flow cytometry on mouse fibroblasts transfected with human CD154, detected with PE-EA-5. How it is done: 10⁶ mouse fibroblasts (stably transfected with full length human CD154) were incubated with CD40 NJ1 (FIGS. 7-8) or CD40 NJ3 variants (FIGS. 9-11). All the proteins were incubated at a concentration of 1-50 μg/ml at 4° C. for 60 min in total volume of 100 μl (0.5×10^6 cells). […] Analysis was performed using BD FACsCalibur. A known CD40 soluble variant was used (in the form of a FC tagged protein) as a positive control for detecting binding to CD154 (U.S. patent application No. 60/547,422, hereby incorporated by reference as if fully set forth herein) (FIG. 17-18).
Briefly, the FACS protocol was as follows. Mouse fibroblasts were trypsinized, and washed twice in PBS; cells were centrifuged at 1500 rpm for 10 min between washes. Next, the cells were re-suspended in FACS buffer (0.2% BSA and 0.02% sodium azide diluted 1/10 in PBS) to give 5-10×10⁶ cells mL. Cells were placed in FACS test-tubes at a volume of 100 or 200 microliters per tube.
Next, 2 μL (1:50) […] non-blocking antibody (EA-5 mouse IgG1 PE-conjugated, obtained from Calbiochem) or controls (same isotype PE conjugated) were added to the tubes, and incubated for 30 min at 4° C. The process of washing was then repeated with 5 mL PBS. Next, 0.5 mL PBS was added to tubes, which were read in a FACS machine (BD FACSCalibur).

B1: CD40 NJ1 splice variant (receptor)
chain: EPPTACREKQYLINSQCCSLCQPGQKLVSDCTEFTETECLPCGESEFLDTWNRETHCHQHKYCDPNLGLRVQQKGTSETDTICTCEEGWHCTSEACESCVLHRSCSPGFGVKQIATGVSDTICEPCPVGFFSNVSSAFEKCHPWTSCETKDLVVQQAGTNKTDVVCGESWTMGPGESLGRWELKGEMRHTGTLDGKKGRGGSLGVWYHSSATYLGSLGKSLPLS
notes: For ELISA and FACS it was expressed non-fused with baculovirus, secreted and purified from the supernatant on a G28-5 column; also called CD40 NJ1 variant; CD40 variant NJ1
As to B1, the binding result is “binds”.

B2: CD40 NJ3 splice variant (receptor)
chain: EPPTACREKQYLINSQCCSLCQPGQKLVSDCTEFTETECLPCGESEFLDTWNRETHCHQHKYCDPNLGLRVQQKGTSETDTICTCEEGWHCTSEACESCVLHRSCSPGFGVKQIATGVSDTICEPCPVGFFSNVSSAFEKCHPWTSCETKDLVVQQAGTNKTDVVCGESWTMGPGESLGRSPGSAESPGGDPHHLRDPVCHPLGAGLYQKGGQEANQ
notes: For ELISA and FACS it was expressed non-fused with baculovirus, secreted and purified from the supernatant on a G28-5 column; also called CD40 NJ3 variant; CD40 variant NJ3
On to B2, for which the binding result is given as “binds”.

For the origin of these results see patent US20050272050A1 (published 2005).
